Data reported in patent US20120095193A1 (published 2012).

T1: human ADAMTS5 (human, UniProt Q9UNA0 262-622, limits assumed)
T1 construct: Octet and ELISA used 'recombinant human ADAMTS5'; also called recombinant human ADAMTS5; ADAMTS5 (R&D Systems 2198-AD)
T1 sequence: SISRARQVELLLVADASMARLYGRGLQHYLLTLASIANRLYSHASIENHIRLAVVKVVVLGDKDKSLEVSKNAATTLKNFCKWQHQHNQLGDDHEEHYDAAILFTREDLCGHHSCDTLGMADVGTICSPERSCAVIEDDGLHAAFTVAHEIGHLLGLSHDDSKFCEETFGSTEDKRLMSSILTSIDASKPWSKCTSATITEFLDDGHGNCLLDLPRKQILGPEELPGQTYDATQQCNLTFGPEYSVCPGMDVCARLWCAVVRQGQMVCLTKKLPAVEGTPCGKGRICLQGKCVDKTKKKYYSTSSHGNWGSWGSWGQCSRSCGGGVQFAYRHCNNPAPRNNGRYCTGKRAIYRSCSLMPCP


The binders below were run against T1, human ADAMTS5 (assay: Biacore, mAb down, no avidity).

Kd	Binder
0.869 nM	BPC1634 (antibody, human IgG1, kappa, V domains shown, Humanized, human gamma 1 / kappa; also called 7B4 H0L0; Humanized 7B4.1E11 H0L0) VH: EVQLVESGGGLVQPGGSLRLSCAASGFTFSDAWMDWVRQAPGKGLEWVAEIRNKANNHARHYAESVKGRFTISRDNAKNSLYLQMNSLRAEDTAVYYCARTYYYGSSYGYCDVWGQGTLVTVSS VL: DIQMTQSPSSLSASVGDRVTITCRTSENIYSYLAWYQQKPGKAPKLLIYNAKTLAEGVPSRFSGSGSGTDFTLTISSLQPEDFATYYCQHHYGTPWTFGQGTKLEIKR

What follows are binders tested against T1, human ADAMTS5 (assay: Octet QK, antigen down, incl avidity).

Kd	Binder
0.205 nM	BPC1634 (antibody, human IgG1, kappa, V domains shown, Humanized, human gamma 1 / kappa; also called 7B4 H0L0; Humanized 7B4.1E11 H0L0) VH: EVQLVESGGGLVQPGGSLRLSCAASGFTFSDAWMDWVRQAPGKGLEWVAEIRNKANNHARHYAESVKGRFTISRDNAKNSLYLQMNSLRAEDTAVYYCARTYYYGSSYGYCDVWGQGTLVTVSS VL: DIQMTQSPSSLSASVGDRVTITCRTSENIYSYLAWYQQKPGKAPKLLIYNAKTLAEGVPSRFSGSGSGTDFTLTISSLQPEDFATYYCQHHYGTPWTFGQGTKLEIKR

Each binder was assayed against T1, human ADAMTS5 (assay: Biacore, mAb from culture supernatant captured on anti-human IgG, ADAMTS5 (R&D 2198-AD) at 64 nM, 1:1 fit).
Method: Anti-human IgG (Biacore™, BR-1008-39) was immobilized on a CM5 chip by primary amine coupling. This surface was then used to capture the humanized antibodies, ADAMTS5 (R&D Systems 2198-AD) was then passed over the captured antibody at a single concentration of 64 nM, regeneration was carried out using 100 mM phosphoric acid followed by 3M MgCl₂. The binding curves were double referenced with buffer injection (i.e. 0 nM) and the data was fitted to the T100 analysis software using the 1:1 model. The run was carried out at 25° C., using HBS-EP as the running buffer. All antibodies were captured from tissue culture supernatants unless specified.

Binder	Kd	koff	kon
BPC1654 (antibody, human IgG1, kappa, V domains shown, Humanized, human gamma 1 / kappa; also called 7B4 H6L2) VH: EVQLVESGGGLVQPGGSLRLSCAASGFTSSDAWMDWVRQAPGKGLEWVAEIRNKANNHARHYAESVKGRFTISRDDAKNSVYLQMNSLRAEDTAVYYCTRTYYYGSSYGYCDVWGQGTLVTVSS VL: DIQMTQSPSSLSASVGDRVTITCRTSENIYSYLAWYQQKPGKAPQLLVYNAKTLAEGVPSRFSGSGSGTDFTLTISSLQPEDFATYYCQHHYGTPWTFGQGTKLEIKR	1.09 nM	0.00114 s⁻¹	1.04e+06 M⁻¹ s⁻¹
BPC1653 (antibody, human IgG1, kappa, V domains shown, Humanized, human gamma 1 / kappa; also called 7B4 H5L2) VH: EVQLVESGGGLVQPGGSLRLSCAASGFTSSDAWMDWVRQAPGKGLEWVAEIRNKANNHARHYAESVKGRFTISRDNAKNSVYLQMNSLRAEDTAVYYCTRTYYYGSSYGYCDVWGQGTLVTVSS VL: DIQMTQSPSSLSASVGDRVTITCRTSENIYSYLAWYQQKPGKAPQLLVYNAKTLAEGVPSRFSGSGSGTDFTLTISSLQPEDFATYYCQHHYGTPWTFGQGTKLEIKR	1.16 nM	0.0026 s⁻¹	2.24e+06 M⁻¹ s⁻¹
BPC1649 (antibody, human IgG1, kappa, V domains shown, Humanized, human gamma 1 / kappa; also called 7B4 H1L2) VH: EVQLVESGGGLVQPGGSLRLSCAASGFTFSDAWMDWVRQAPGKGLEWVAEIRNKANNHARHYAESVKGRFTISRDNAKNSLYLQMNSLRAEDTAVYYCTRTYYYGSSYGYCDVWGQGTLVTVSS VL: DIQMTQSPSSLSASVGDRVTITCRTSENIYSYLAWYQQKPGKAPQLLVYNAKTLAEGVPSRFSGSGSGTDFTLTISSLQPEDFATYYCQHHYGTPWTFGQGTKLEIKR	1.27 nM	0.0013 s⁻¹	1.02e+06 M⁻¹ s⁻¹
BPC1650 (antibody, human IgG1, kappa, V domains shown, Humanized, human gamma 1 / kappa; also called 7B4 H2L2) VH: EVQLVESGGGLVQPGGSLRLSCAASGFTSSDAWMDWVRQAPGKGLEWVAEIRNKANNHARHYAESVKGRFTISRDNAKNSLYLQMNSLRAEDTAVYYCARTYYYGSSYGYCDVWGQGTLVTVSS VL: DIQMTQSPSSLSASVGDRVTITCRTSENIYSYLAWYQQKPGKAPQLLVYNAKTLAEGVPSRFSGSGSGTDFTLTISSLQPEDFATYYCQHHYGTPWTFGQGTKLEIKR	1.09 nM	0.00343 s⁻¹	3.14e+06 M⁻¹ s⁻¹
BPC1651 (antibody, human IgG1, kappa, V domains shown, Humanized, human gamma 1 / kappa; also called 7B4 H3L2) VH: EVQLVESGGGLVQPGGSLRLSCAASGFTSSDAWMDWVRQAPGKGLEWVAEIRNKANNHARHYAESVKGRFTISRDNAKNSLYLQMNSLRAEDTAVYYCTRTYYYGSSYGYCDVWGQGTLVTVSS VL: DIQMTQSPSSLSASVGDRVTITCRTSENIYSYLAWYQQKPGKAPQLLVYNAKTLAEGVPSRFSGSGSGTDFTLTISSLQPEDFATYYCQHHYGTPWTFGQGTKLEIKR	1.19 nM	0.00315 s⁻¹	2.65e+06 M⁻¹ s⁻¹
BPC1648 (antibody, human IgG1, kappa, V domains shown, Humanized, human gamma 1 / kappa; also called 7B4 H0L2) VH: EVQLVESGGGLVQPGGSLRLSCAASGFTFSDAWMDWVRQAPGKGLEWVAEIRNKANNHARHYAESVKGRFTISRDNAKNSLYLQMNSLRAEDTAVYYCARTYYYGSSYGYCDVWGQGTLVTVSS VL: DIQMTQSPSSLSASVGDRVTITCRTSENIYSYLAWYQQKPGKAPQLLVYNAKTLAEGVPSRFSGSGSGTDFTLTISSLQPEDFATYYCQHHYGTPWTFGQGTKLEIKR	1.21 nM	0.000951 s⁻¹	788000 M⁻¹ s⁻¹

Further lines, results first:

Kd	koff	kon	Binder
0.869 nM	0.000481 s⁻¹	554000 M⁻¹ s⁻¹	BPC1634 (antibody, human IgG1, kappa, V domains shown, Humanized, human gamma 1 / kappa; also called 7B4 H0L0; Humanized 7B4.1E11 H0L0) VH: EVQLVESGGGLVQPGGSLRLSCAASGFTFSDAWMDWVRQAPGKGLEWVAEIRNKANNHARHYAESVKGRFTISRDNAKNSLYLQMNSLRAEDTAVYYCARTYYYGSSYGYCDVWGQGTLVTVSS VL: DIQMTQSPSSLSASVGDRVTITCRTSENIYSYLAWYQQKPGKAPKLLIYNAKTLAEGVPSRFSGSGSGTDFTLTISSLQPEDFATYYCQHHYGTPWTFGQGTKLEIKR
1.08 nM	0.00212 s⁻¹	1.96e+06 M⁻¹ s⁻¹	BPC1652 (antibody, human IgG1, kappa, V domains shown, Humanized, human gamma 1 / kappa; also called 7B4 H4L2) VH: EVQLVESGGGLVQPGGSLRLSCAASGFTSSDAWMDWVRQAPGKGLEWVAEIRNKANNHARHYAESVKGRFTISRDDAKNSLYLQMNSLRAEDTAVYYCTRTYYYGSSYGYCDVWGQGTLVTVSS VL: DIQMTQSPSSLSASVGDRVTITCRTSENIYSYLAWYQQKPGKAPQLLVYNAKTLAEGVPSRFSGSGSGTDFTLTISSLQPEDFATYYCQHHYGTPWTFGQGTKLEIKR
0.978 nM	0.00145 s⁻¹	1.48e+06 M⁻¹ s⁻¹	BPC1647 (antibody, human IgG1, kappa, V domains shown, Humanized, human gamma 1 / kappa; also called 7B4 H6L1) VH: EVQLVESGGGLVQPGGSLRLSCAASGFTSSDAWMDWVRQAPGKGLEWVAEIRNKANNHARHYAESVKGRFTISRDDAKNSVYLQMNSLRAEDTAVYYCTRTYYYGSSYGYCDVWGQGTLVTVSS VL: DIQMTQSPSSLSASVGDRVTITCRTSENIYSYLAWYQQKPGKAPKLLVYNAKTLAEGVPSRFSGSGSGTDFTLTISSLQPEDFATYYCQHHYGTPWTFGQGTKLEIKR
1.03 nM	0.00184 s⁻¹	1.79e+06 M⁻¹ s⁻¹	BPC1646 (antibody, human IgG1, kappa, V domains shown, Humanized, human gamma 1 / kappa; also called 7B4 H5L1) VH: EVQLVESGGGLVQPGGSLRLSCAASGFTSSDAWMDWVRQAPGKGLEWVAEIRNKANNHARHYAESVKGRFTISRDNAKNSVYLQMNSLRAEDTAVYYCTRTYYYGSSYGYCDVWGQGTLVTVSS VL: DIQMTQSPSSLSASVGDRVTITCRTSENIYSYLAWYQQKPGKAPKLLVYNAKTLAEGVPSRFSGSGSGTDFTLTISSLQPEDFATYYCQHHYGTPWTFGQGTKLEIKR
